Results published in article PMC7303358, “The Lotus japonicus Ubiquitin Ligase SIE3 Interacts With the Transcription Factor SIP1 and Forms a Homodimer” (Frontiers in Plant Science, 2020).

Molecular target: the molecule itself
Test: SDS-PAGE without DTT in the loading buffer and immunoblot (band of dimer size); SIE3::GFP leaf extract in native buffer, incubated with 10 μM ATP at 4°C with 0 or 100 mM DTT; stopped with SDS loading buffer without DTT; anti-GFP blot

B1: SIE3::GFP (natural protein, L. japonicus, UniProt K0BV36 1-386, looked up)
chain: MELSTIKDAFDRVTKKQKSSSSKTQEVIDQIRQEIENVLDTMQSVNNTDHVLDHKTVLNELKASLLQTAPLSQMEGTQKELNVALSKYGKLLEKNFNTDISKAYRNIDIDVHTLNQIIANHFYRQGLFEIGDHFLSVVGEPESAAVMKSPFLEMYQILEAMKNQDLEPALKWATSNSDKLAQSGSDIVLKLHSMQFVKILQNGSRDEALHYARTYLSPFASSHIADIQKLMGSLLWTGKLDSSPYHALLSPSNWDRLAEELKRQFCNLLGQSYNSPLSVTISAGVQALPPLLKFMNVMVGKKQEWQTMNQLPVPVELDSELQFHSIFVCPVSKEQATEDNPPMLMSCGHVLCKQSISKMSKNGSKLFKCPYCPFDVDAALCKQLYF
notes: SIE3 of Lotus japonicus fused to GFP; the cloning of this construct is not described; Detected with anti-GFP antibody; monomer about 68.5 kDa, upper band about 137 kDa; source: N. benthamiana leaves, total proteins extracted in native buffer
stoichiometry N: 2
